# Test system: K4 kissing-loop RNA reporter
# Test: apparent KD of K4 kissing-loop reporter; higher = weaker reporter binding
# Settings: Eterna round: R107; input ligand: none
# Method: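 RNA-MaP round R107: designed RNA switches with theophylline, tryptophan, arginine or FMN aptamers are transcribed on-chip within common flanks. They are titrated with a labelled K4 kissing-loop RNA reporter in RNA-MaP buffer (100 mM Tris pH 7.5, 80 mM KCl, 4 mM MgCl2), without ligand or with the indicated ligand. Median apparent KD per design.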
# 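Further: bound reporter read as fluorescence of individual clusters on recovered sequencing chips by microscopy, with normalized cluster intensities fitted with a binding model.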
row,Sequence,apparent KD of K4 kissing-loop reporter [nM]
1,GUCAUCAGAUCGCAAGAUCUGAUAGCCGAUACCAGCGCGAAGGUGCGCCCUUGGCAGCGGCACCGAGUGAUGUUCGGUCAGACGA [#2 Same State - Theophylline A Attempt #5 (HarryS)],514
2,CUAUGGAAACAUAGGAGUCGGGAAACCGAUACCAGUAUGGAAACAUACCCUUGGCAGCGGAAUGAUUCAACGGAGUGAUGUUCCG [Theophylline A K4 19],400
3,AAUACAGUACAACCGAGUGGAACACAAAUACGAGGACCGGUACGGCCGCCACUCGUGCAGAAUUUCAGUGAUGUUGAAAUACUGC [Exclusion Tryptophan A GF 6],122
4,AGUUCCUCUGUCGAUACCAGCUUCAGUUGGCGGCCAGUGAUGUUGGUAUCGCCGAUGCCAAGCCCUUGGCAGCGACAUGAGACCC [Lausso],169
5,UUUUAAAUAUCUGAUACCAGAGAAAAUAUAUGUAGUGAUGUUAUAUACAAAAUAAUUAAGCUCCCUUGGCAGCAGUAUUAAUUUU [AstrosExc-TheB#3],946
6,GUAGACGUACCUUCAGUGAUGUUGAAGGAUACCAGAUGUUACCACAUCCCUUGGCAGCCUUGGGAUAACAGUGAGUCGGAAUAUG [Uslediti],158
7,UGUACCGAGUCAGGAUAUCAACGACUGACAAAAGUCGGUCGAAUAUCCAGUGAUGUUGGAAAUAAAUGAGAAGGGACUUGGUACU [FmnBS 14 #SwitchBubble #StaticStem],276
8,GCGGGCCAGACGGCCGCCACUCCGGGCAGUGAUGUUGCGAAAAUUCUACUAGAGUGAUGUUCUACGAGGACCGGGUCGGAACGCG [Exclusion Tryptophan B Gf 12],538
9,GCGGACAUUCGCAGUGAUGUUGCGACGGAAGGAGCGCGUGAAAACGCAGGUAGGUCGCCGACAAAAUUAAUUUUAAUGUGUUCGC [Arginine A K4 30],394
10,UGUGUUGUUUUGAUGUUUGGUGUAAGUUGGCAGGAUAUCGUAGAGGCGAGAAGGGCUUUUAUGCGUUAUGAGUGAUGUUUGUAGG [zrrzmullin],538
11,AGGCCCGGCCGAAAGGCCGGGCCAAGAGAUACCAGCAGCGAAAGCUGCCCUUGGCAGCUCACUUAGUGAUGUUAAGAGAUAAAUG [SS Theo A Tesla 1.2],294
12,AGUGCACUGUCAGGAUAUAUACAGUGAUGUUGUGUAUGUCAGCAAGUCAAAGACUUGCUGUUCUGUGUAGAAGGGACUGUGUACA [Omei KL FMN B Exc A v3],450
13,UCUGCAAAGUCGGCCGCCACUCCGGGCCCUAUAAAUGGGCGCAGUGAUGUUGCGGCUAGGCCUCUGAGGACCGGGACUUUAUAGA [Anarisgema],184
14,GGGAAGUACGGAGGAUAUGCACUGAGGAGGAGAAUAUAGUGAUGUUAUAUAAGAGGAAGGAGAAGAGUAGAAGGCCGUGGAAAGG [SSFMNB.C],228
15,AUUCAUUUCAGAGGAUAUCGCUGGAGAGUGAUGUUCUCCCAUAGUCAGUGAUGUUGGCUAGCUAUGCGAGAAGGCUGUGGGUGGA [Same State FMN B GF 28],397
16,GCUCGGGAGUGAUGUUCCAAGUGGUGUUAACGAGGACCGGUACGGCCGCCACUCGAUACGGCCGGGCCGUAGGAUAAACUGGAGC [Same State - Tryptophan A (Freestyle 13)],154
17,AGAGUUAUGCGAGGAUAUGCGGUUAGUACUCAAAGAGUACUAACAGCAGAGUGAUGUUCUGUGAAAGCAGAAGGUGCAUAACUCA [Omei KL FMN B SS B v10],1040
18,CUAAUCGCUCAUGAUACCAGCUAGUGAUGUUAGCCCGUCAAGCUGAGGGUUCAUCCACCCAGCCCUUGGCAGCAUUCUCGGUCAG [theeternabot_exclusion_KL_Theo_B_8],387
19,GCCUAGCAGGGAAGGAGCGGCAUAAGCAUAGAUAAUAUGCAGUUAGUGAUGUUAAUACUAUGCCAGGUAGGUCGCCCUGCUAGGC [KL-SSArg B7],688
20,AGACUACUGAUAGGAUAUAACAUACUAACUCGUAUACCAAAGGUAUACGAGACCCUUCUAGUGAUGUUAGAAGGGUCGGUAGUCA [Omei KL FMN B Exc B v6],76.3
21,CGAUACGGAAAUACGUGUCUCUAUUCAGAAGGAGCGUGGUAGUACACAGGUAGGUCGCUGAAAUUUAAACUAGUGAUGUUAGACU [JR_SSArginiA_Sub004],1190
22,CGAGUGAUGUUCGUUUUUUACUCUGUUUGACAGGAUAUGCGGAAACGCAGAAGGGUCACCUUUGAGUUAAACGGAGUUAUUUUUU [Ex FMN A 20],366

# Same assay, conditions: Eterna round: R107; input ligand: theophylline 20 uM
row,Sequence,apparent KD of K4 kissing-loop reporter [nM]
1,UGUCAUUGGUCGGCCGCCACUUCAAAAGGUCAAAGACCAGAGUGAUGUUCUUCACGAAACGUGAGAAGGACCGGGACCGAUGACU [TrypBS 12 #SwitchBubble #K4Middle],266
2,UGAUAGGACAGAAGGAGCGGAAGUGAUGUUUCCAAAAGGGAAGGUCGACAAAGUCGACCCUUCCAGGUAGGUCGCUGUCCUAUCU [ArgBX 9 #Palindromic #SwitchBubble #StaticStem],86.1
3,UGGAGUUGACGAAAAGUCAACUCCUGGGAAGGAGCGGACGAAAGUCCAGGUAGGUCGCUCACUACCAGUGAUGUUGGUACUAAAA,200
4,UAUUUAUUAACUGAUACCAGACUUAAUGAAUUGUAAAUUACUAGUGAUGUUAGUGAAUCUGUCCCUUGGCAGCAGUAUUUAUUAA [JR_Nu_ExcTheophyB_Sub028],170
5,CCCGUGGGUUCGAGAGGGCUUGUGGGAAGUAAGGAUAUUUAGGGAGAAAGAAGGUACUAUAGAAUAUAGUGAUGUUAUAUAUGGG [#07 K4 FMN A Same State],347
6,UUGGAGUGAUGUUCCAUAUCUUGAGCGGAAGGAGCGGCAAAAGUGCCAGGUAGGUCGCCGCAGAAGGUACCAGUGAUGUUGGAAA [Same State Arginine A GF 3],156
7,UUUUAGGUAUCUGAUACCAGAGAAAAUAUAUGUAGUGAUGUUAUAUACAAAAUAAUUAAGCUCCCUUGGCAGCAGUUUUAAUUUU [AstrosExc-TheB#5],763
8,AGUGUUAGGUUAGAUACCAGCCGUUCGUGAAUAAUCCUCGAACCGCCAGUGAUGUUGGCAGGCCCUUGGCAGCUAACAGAACAGA [Maxeusla],170
9,UGAUUGCCAGUGAUGUUGGCAGUGACUGAAGGAGCGCGUGAAAACGCAGGUAGGUCGCAGUUGAGUGCCAAUUGAUCGAAAGAUC [KL-XArg-A5],328
10,UAUAUAUGAUGUGAUACCAGUGAAAAGCCAGUGAUGUUGGAAGAACUGGUAUAUAAAUAACACCCUUGGCAGCACAAUCACGUAU [theophylline b exclusion],382
11,UGUCAUGGAAACAUGAACGUUGAUGUUCGACGAGGACCGGUACGGCCGCCACUCGAGUAAUAGUCAGUGAUGUUGACUUGUCUAA [KL-SSTryp-A form1 sub3],131
12,GGAGAGAACUGAAGGAGCGCCAAGAGAGAAGGAAAUAUAGUGAUGUUAUAUAAGAGAGAGAGGCAGGUAGGUCGCAGAGGGAGGA [#03 K4 Arginine B Exclusion],175
13,UGUCAUUGGUCGGCCGCCACUUCGUGUAGAGUGAUGUUUUGUAGGACGGAUCGAAAGAUCUGUCGAAGGACCGGGACCGAUGACU [FiskerMod 18 - Jieux - Same State - Tryptophan B],336
14,UGUGCCAACAGUGAUACCAGCGUGGAGUGAUGUUCCGAGGAUCGGAGUGAUGUUCCGAAGCGCCCUUGGCAGCGCAGAAGCGCGA [Exclusion Theophylline B GF 26],189
15,ACCUACCAUUAGUGAUGUUAAUGGACGGAAGGAGCGCAGAUAUCUGCAGGUAGGUCGCCGAAGGCUAGACAUUGUCUAGCCAUUU [AK1.3 SS Arginine A],155
16,UCCUGCAAUCUACCACGAAAGUGGAUGGAUACCAGAGUCGAAAGACUCCCUUGGCAGCCAGUGAUGUUGGAGCAGGUAAAAUAAA,514

row,Sequence,apparent KD of K4 kissing-loop reporter [nM]
1,GAGUGGCAGACGGCCGCCACUCUUAGCAGCCAGCGGAGUGAUGUUCCGCCCGAGUGAUGUUCGGAGAGGACCGGGUUUGUUGUAA [Exclusion Tryptophan B GF 29],149
2,UGUUUUUACUGAAGGAGCGGCAAUUGAUACGUAGAUAUAGUGAUGUUAUAUAAGAUAGAGAGCCAGGUAGGUCGCAGAAUGAAUC [ExArgB.aD],242
3,CAUAGACAAGUGAUGUUUGUCAUAACCGAAGGAGCGUCUUUAAAGACAGGUAGGUCGCGGAUUAGUUAAGUUAUGAUUCUUUAUG [#19 K4 Arginine A Same State],659
4,GCAGUGAUGUUGCGCAUGUACAGUGGAGUGCGAGGACCGGUACGGCCGCCACUCGUACAGAACAAGCUAAUAUAUGGAUAGGUGA [IX],510
5,ACGGGCGGCUGAAGGAGCGGGCGGGCCCGAGUGAUGUUCGGGUGGGCCGUGAGGUCCGGAGCCCAGGUAGGUCGCGGUUCCGCCU [#2 Same State - Arginine B Attempt #14 (HarryS)],197
6,GUCAUCAGAUCGCAAGAUCUGAUAGCCGAUACCAGCGCGAAGGUGCGCCCUUGGCAGCGGCACCGAGUGAUGUUCGGUCAGACGA [#2 Same State - Theophylline A Attempt #5 (HarryS)],330
7,CUAUGGAAACAUAGGAGUCGGGAAACCGAUACCAGUAUGGAAACAUACCCUUGGCAGCGGAAUGAUUCAACGGAGUGAUGUUCCG [Theophylline A K4 19],322
8,AAUACAGUACAACCGAGUGGAACACAAAUACGAGGACCGGUACGGCCGCCACUCGUGCAGAAUUUCAGUGAUGUUGAAAUACUGC [Exclusion Tryptophan A GF 6],162
9,AGUUCCUCUGUCGAUACCAGCUUCAGUUGGCGGCCAGUGAUGUUGGUAUCGCCGAUGCCAAGCCCUUGGCAGCGACAUGAGACCC [Lausso],111
10,UUUUAAAUAUCUGAUACCAGAGAAAAUAUAUGUAGUGAUGUUAUAUACAAAAUAAUUAAGCUCCCUUGGCAGCAGUAUUAAUUUU [AstrosExc-TheB#3],705
11,GUAGACGUACCUUCAGUGAUGUUGAAGGAUACCAGAUGUUACCACAUCCCUUGGCAGCCUUGGGAUAACAGUGAGUCGGAAUAUG [Uslediti],166
12,UGUACCGAGUCAGGAUAUCAACGACUGACAAAAGUCGGUCGAAUAUCCAGUGAUGUUGGAAAUAAAUGAGAAGGGACUUGGUACU [FmnBS 14 #SwitchBubble #StaticStem],264
13,GCGGGCCAGACGGCCGCCACUCCGGGCAGUGAUGUUGCGAAAAUUCUACUAGAGUGAUGUUCUACGAGGACCGGGUCGGAACGCG [Exclusion Tryptophan B Gf 12],495
14,GCGGACAUUCGCAGUGAUGUUGCGACGGAAGGAGCGCGUGAAAACGCAGGUAGGUCGCCGACAAAAUUAAUUUUAAUGUGUUCGC [Arginine A K4 30],415
15,UGUGUUGUUUUGAUGUUUGGUGUAAGUUGGCAGGAUAUCGUAGAGGCGAGAAGGGCUUUUAUGCGUUAUGAGUGAUGUUUGUAGG [zrrzmullin],404
16,AGGCCCGGCCGAAAGGCCGGGCCAAGAGAUACCAGCAGCGAAAGCUGCCCUUGGCAGCUCACUUAGUGAUGUUAAGAGAUAAAUG [SS Theo A Tesla 1.2],424

# From the supplement of paper PMC9170038
